Experimental findings from paper PMC5971111 (Nature structural & molecular biology, 2018) are described below.

The target of the assay is T1, Sec15 (S. cerevisiae, UniProt P22224 1-910).
T1 sequence: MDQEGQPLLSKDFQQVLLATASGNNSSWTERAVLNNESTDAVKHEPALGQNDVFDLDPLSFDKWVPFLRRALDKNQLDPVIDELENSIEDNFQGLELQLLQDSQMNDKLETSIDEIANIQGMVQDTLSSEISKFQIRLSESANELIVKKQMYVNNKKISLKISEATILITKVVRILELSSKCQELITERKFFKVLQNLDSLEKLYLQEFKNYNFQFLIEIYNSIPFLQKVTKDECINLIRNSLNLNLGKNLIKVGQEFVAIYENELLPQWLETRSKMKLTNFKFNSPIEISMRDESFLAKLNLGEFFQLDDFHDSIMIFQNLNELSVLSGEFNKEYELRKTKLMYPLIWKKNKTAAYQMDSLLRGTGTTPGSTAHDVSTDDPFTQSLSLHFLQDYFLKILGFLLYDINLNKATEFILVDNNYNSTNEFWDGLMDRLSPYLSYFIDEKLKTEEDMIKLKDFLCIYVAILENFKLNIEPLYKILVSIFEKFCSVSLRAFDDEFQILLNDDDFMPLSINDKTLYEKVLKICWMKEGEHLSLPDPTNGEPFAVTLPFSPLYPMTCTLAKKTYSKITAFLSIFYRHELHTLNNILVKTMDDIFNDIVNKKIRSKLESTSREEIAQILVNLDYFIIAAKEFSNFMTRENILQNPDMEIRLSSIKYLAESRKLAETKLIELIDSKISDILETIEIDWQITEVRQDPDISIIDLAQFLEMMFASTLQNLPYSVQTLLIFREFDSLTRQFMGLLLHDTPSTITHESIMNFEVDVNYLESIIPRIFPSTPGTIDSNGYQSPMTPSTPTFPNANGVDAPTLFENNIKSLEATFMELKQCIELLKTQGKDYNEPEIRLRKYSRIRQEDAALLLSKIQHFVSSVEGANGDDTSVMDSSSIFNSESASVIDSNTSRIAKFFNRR
Nature of the assay: […].

B1: Exo84 (natural protein)
chain: MVEFSLKKARNNWKHVKKSASSPAKQKTPPSPAKPKQKTKKNPYSDLKDPATSYTLPTINARERSRVATSMQRRLSIHNTNYAPPTLDYSMPLPDMPNMIVPNDNVDSSHNNSSFTTENESVSSKGPSNSLNLSTADLSLNDSSYNKVPARSAMRNTVNPSGSNDPFNNSTSLRKMLANPHFNAKDFVHDKLGNASAITIDKFTSNLTDLSIQVQEEVKLNINKSYNEIMTVNNDLNVAMLELKRVRANINDLNEVLDQCTKIAEKRLQLQDQIDQERQGNFNNVESHSNSPALLPPLKAGQNGNLMRRDRSSVLILEKFWDTELDQLFKNVEGAQKFINSTKGRHILMNSANWMELNTTTGKPLQMVQIFILNDLVLIADKSRDKQNDFIVSQCYPLKDVTVTQEEFSTKRLLFKFSNSNSSLYECRDADECSRLLDVIRKAKDDLCDIFHVEEENSKRIRESFRYLQSTQQTPGRENNRSPNKNKRRSMGGSITPGRNVTGAMDQYLLQNLTLSMHSRPRSRDMSSTAQRLKFLDEGVEEIDIELARLRFESAVETLLDIESQLEDLSERISDEELMLLNLISLKIEQRREAISSKLSQSILSSNEIVHLKSGTENMIKLGLPEQALDLFLQNRSNFIQDLILQIGSVDNPTNYLTQLAVIRFQTIKKTVEDFQDIFKELGAKISSILVDWCSDEVDNHFKLIDKQLLNDEMLSPGSIKSSRKQIDGLKAVGLDFVYKLDEFIKKNSDKIR
As for B1, the binding result was “binds”.
